Reference: patent publication US20030180282A1, “Method of treatment of thrombotic events” (priority 2002, published 2003)

Key:
[1] = system: platelets; assay: in vitro comparison of TNK versus t-PA on platelet activation and surface receptor expression (15 parameters); format: cell-based, human; conditions: TNK 12 μg/mL, t-PA 4 μg/mL, 30 minutes
Description: (§1) Blood samples for the in vitro study were obtained from 9 healthy volunteers. None of the subjects smoked or had hypertension, diabetes, or an abnormal hematocrit. None had received aspirin or any other antiplatelet drugs. All subjects underwent blood sampling after at least 30 minutes of rest and 2 or more hours of fasting. Blood was drawn from an antecubital vein between 8 am and 10 am in order to avoid any diurnal influence. A 21-gauge butterfly needle was used to draw blood into a tube containing 3.8% sodium citrate (1:9 volume); the first 1.5 mL of free running blood was discarded. One tube was kept as an internal control. A second tube was incubated with tenecteplase (TNK) for 30 minutes at room temperature in order to achieve a final concentration of 12 μg/mL. […]
For the platelet aggregation (PA) studies, platelet-rich plasma (PRP) was first isolated. […] Platelet counts were determined for each PRP sample with a Coulter Counter ZM (Coulter Co., Hialeah, Fla.). […] Platelet aggregation was determined by using a 4 channel Chrono-log Lumi-Aggregometer (model 560-Ca) and expressed as the maximum percentage of light transmittance change (% max) from the baseline at the end of the recording time. […] Platelet aggregability curves were recorded for 6 minutes and analyzed according to internationally established standards (see, e.g., Ruggeri, Z. M. (1994) Semin. Hemat. 31:229-239). […]

[2] = system: platelets; assay: in vitro whole blood flow cytometry of platelet receptors and platelet-monocyte aggregates; format: cell-based, human; conditions: TNK 12 μg/mL, t-PA 4 μg/mL
Description: (§2) Blood samples for the in vitro study were obtained from 9 healthy volunteers. None of the subjects smoked or had hypertension, diabetes, or an abnormal hematocrit. None had received aspirin or any other antiplatelet drugs. All subjects underwent blood sampling after at least 30 minutes of rest and 2 or more hours of fasting. Blood was drawn from an antecubital vein between 8 am and 10 am in order to avoid any diurnal influence. A 21-gauge butterfly needle was used to draw blood into a tube containing 3.8% sodium citrate (1:9 volume); the first 1.5 mL of free running blood was discarded. One tube was kept as an internal control. A second tube was incubated with tenecteplase (TNK) for 30 minutes at room temperature in order to achieve a final concentration of 12 μg/mL. The third tube was similarly incubated with alteplase (t-PA) to achieve a concentration of 4 μg/mL. The concentrations of TNK and t-PA that were chosen approximated conventional plasma levels observed in patients receiving TNK and t-PA bolus (30 mg, and 15 mg, respectively; data on file, Genentech, Inc., South San Francisco, Calif.). Fresh solutions of TNK and t-PA were prepared in Dulbecco's phosphate buffered saline (DPBS) ex tempore on the morning of the platelet studies.
The surface expression of platelet receptors was determined by flow cytometry by using the following monoclonal antibodies: CD 41 (glycoprotein [GP] IIb/IIIa, α IIbβ3) CD 42b (GP Ib), CD 62p (P-selectin), CD 51/CD 61 (αvβ3, or vitronectin receptor), CD 31 (platelet endothelial cell adhesion molecule [PECAM]-1), CD 107a (LAMP-1), CD 107b (LAMP-2), CD 63 (LIMP or LAMP-3), and CD 151 (PETA-3) (PharMingen, San Diego, Calif.). Platelet-leukocyte interactions were assessed by using dual antibodies for a pan-platelet marker (CD 41), together with CD 14, a monocyte/macrophage marker. The blood-citrate mixture (50 μl) was diluted with 450 μl Tris buffered saline (TBS) (10 mmol/L Tris, 0.15 mol/L sodium chloride) and mixed by gently inverting an Eppendorf tube 2 times. The corresponding antibody was then added (5 μl) and incubated at 4° C. for 30 minutes. After incubation, 400 μl of 2% buffered paraformaldehyde was added for fixation. The samples were analyzed on a Becton Dickinson FACScan flow cytometer set up to measure fluorescent light scatter, as previously described. All parameters were collected by using 4-decade logarithmic amplification. The data were collected in list mode files and then analyzed. P-selectin was expressed as percent positive cells. Other antigens were expressed as log mean fluorescence intensity.
(§3) For all comparisons, statistical analyses were done by using repeated measures ANOVA. Post hoc comparison was performed by use of the Bonferroni t-test to identify specific differences in platelet aggregation and receptor expression between patients treated with TNK and t-PA, and controls. The Mann-Whitney U test was used to analyze non-parametric data. Normally distributed data were expressed as mean±SE, and skewed data as median (range). Probability values of P<0.05 were regarded as statistically significant. Linear regression analysis was applied to normally distributed data for all study participants by using the Statview 4.1 program for analysis.

[3] = system: platelets; assay: rapid platelet-function assay (Ultegra); format: cell-based, human; conditions: TNK 12 μg/mL, t-PA 4 μg/mL
Description: as §2
With rapid platelet-function assay (RPFA (Ultegra®); Accumetrics, Inc., San Diego, Calif.), polystyrene beads coated with fibrinogen are placed in a cartridge along with a peptide that activates the thrombin receptor. A whole blood citrate mixture is added to the cartridge, and agglutination between platelets and coated beads is recorded. The data mirror turbidometric platelet aggregation and reflect the degree of platelet glycoprotein IIb/IIIa blockade.
For all comparisons, statistical analyses were done by using repeated measures ANOVA. Post hoc comparison was performed by use of the Bonferroni t-test to identify specific differences in platelet aggregation and receptor expression between patients treated with TNK and t-PA, and controls. […] Normally distributed data were expressed as mean±SE, and skewed data as median (range). […]

[4] = system: platelets; assay: in vitro whole blood aggregometry (impedance); format: cell-based, human; conditions: 5 μg/mL collagen; TNK 12 μg/mL, t-PA 4 μg/mL
Description: as §1
Whole blood samples were prepared as follows: whole blood citrate mixture was diluted 1:1 with 0.5 mL Tyrode's buffer solution, then swirled gently. […] Platelet aggregability was expressed as the change in electrical impedance and is expressed in ohms. Aggregation curves were recorded for 6 minutes and analyzed by use of Aggrolink® software (Chrono-log Corporation).
(§4) For all comparisons, statistical analyses were done by using repeated measures ANOVA. […] Normally distributed data were expressed as mean±SE, and skewed data as median (range). […]

[5] = system: platelets; assay: PFA-100 platelet function analyzer, closure time; format: cell-based, human; conditions: TNK 12 μg/mL, t-PA 4 μg/mL
Description: as §2
The PFA-100™ (Dade Behring, Deerfield, Ill.) is a high shear-inducing platelet function analyzer that simulates primary hemostasis after injury to a small vessel under flow conditions (see, e.g. Kundu, S. K. et al. (1996) Clin. Appl. Thromb. Hemost. 2:241-249). The device provides a constant negative pressure that aspirates a whole blood-citrate mixture, which comes into contact with a collagen-coated membrane and then passes through an aperture. The time required to obtain occlusion of the aperture is digitally recorded and is a measure of shear-induced platelet aggregation.
as §4

[6] = system: platelet-derived biomarkers; assay: ASSENT-2 platelet substudy: ELISA of platelet-derived biomarkers in plasma of AMI patients; format: in vivo, human
Description: Forty-one patients with ST-segment elevation AMI enrolled in a single ASSENT-2 site (Rashid Hospital, Dubai, United Arab Emirates) were studied. The inclusion and exclusion criteria of ASSENT-2 have been previously reported ([no authors listed] (1999) Lancet 354:716-722). Briefly, patients included in the trial were between 18 and 70 years of age and were seen within 6 hours of symptom onset with >30 minutes of continuous symptoms. […] After informed consent was obtained, 7 serum samples were drawn. Samples were collected at baseline and at 30-minute intervals during a 180-minute period. Within 15 minutes of sample acquisition, plasma was separated by centrifugation at 800 g for 10 minutes, aspirated, placed in vials, and snapped frozen at −20° C.
Enzyme-linked immunosorbent assay (ELISA) was used according to standard sandwich techniques for CD 31 (sPECAM-1), sVACAM-1, sP-selectin, (R&D Systems Inc. Minneapolis, Minn.), beta-thromboglobulin, Asserachrom® (Diagnostica Stago Inc., Parsippany, N.J.), platelet factor 4 Asserachrom®, thromboxane, and prostacyclin (Cayman Chemical Co., MI). Each sample was measured in duplicate, and the overall intra-assay coefficient of variation was between 3.1%±0.4% and 7.6%±1.0%, with a plasma recovery rate between 89.7% and 98.7%.
as §3
In the ASSENT-2 Platelet Substudy, 21 of the 41 patients enrolled received TNK (30-50 mg), while the remaining 20 received t-PA (40-85 mg). There were no substantial differences in baseline characteristics for the AMI patients.

B1: TNK: form of tissue plasminogen activator, thrombolytic agent (Genentech) (protein, UniProt P00750 36-562, looked up, variant T103N N117Q K296A H297A R298A R299A)
Tissue-type plasminogen …: SYQVICRDEKTQMIYQQHQSWLRPVLRSNRVEYCWCNSGRAQCHSVPVKSCSEPRCFNGGTCQQALYFSDFVCQCPEGFAGKCCEIDTRATCYEDQGISYRGNWSTAESGAECTNWQSSALAQKPYSGRRPDAIRLGLGNHNYCRNPDRDSKPWCYVFKAGKYSSEFCSTPACSEGNSDCYFGNGSAYRGTHSLTESGASCLPWNSMILIGKVYTAQNPSAQALGLGKHNYCRNPDGDAKPWCHVLKNRRLTWEYCDVPSCSTCGLRQYSQPQFRIKGGLFADIASHPWQAAIFAAAAASPGERFLCGGILISSCWILSAAHCFQERFPPHHLTVILGRTYRVVPGEEEQKFEVEKYIVHKEFDDDTYDNDIALLQLKSDSSRCAQESSVVRTVCLPPADLQLPDWTECELSGYGKHEALSPFYSERLKEAHVRLYPSSRCTSQHLLNRTVTDNMLCAGDTRSGGPQANLHDACQGDSGGPLVCLNDGRMTLVGIISWGLGCGQKDVPGVYTKVTNYLDWIRDNMRP
platelet function, 10 of 15 parameters, compared with baseline DPBS values [1]: diminished platelet function
CD 151 expression, TNK versus t-PA samples [2]: Significant reduction
PECAM-1 expression, TNK versus t-PA samples [2]: Significant reduction
expression of PECAM-1 compared with saline-treated samples [2]: trend toward diminished expression
expression of glycoprotein IIb/IIIa compared with saline-treated samples [2]: reduced expression
formation of platelet-monocyte aggregates compared with saline-treated samples [2]: trend toward diminished
formation of platelet-monocyte aggregates, TNK versus t-PA [2]: lower
glycoprotein IIb/IIIa expression, TNK versus t-PA samples [2]: Significant reduction
vitronectin receptor expression, TNK versus t-PA samples [2]: Significant reduction
platelet activation units (Ultegra) compared with DPBS [3]: reduction
platelet activation with the Ultegra analyzer, TNK versus t-PA samples [3]: statistically significant decrease
whole blood aggregometry, TNK versus t-PA samples [4]: statistically significant decrease
closure time (PFA-100) compared with DPBS [5]: prolongation
closure time with the ADP/collagen cartridge (PFA-100), TNK versus t-PA samples [5]: extension
P-selectin plasma concentrations ([6]; 30-60 minutes): immediate increase
P-selectin plasma concentrations ([6]; 120-150 minutes): significant decrease
P-selectin plasma concentrations ([6]; 180 minutes): rebound
plasma levels of PECAM-1 ([6]; AMI patients after thrombolysis): significantly inhibited
release of substances from platelets (plasma biomarkers) ([6]; TNK 30-50 mg, t-PA 40-85 mg, 180-minute period): decreased release
vascular cell adhesion molecule-1 (VCAM-1) release ([6]; after 90 minutes): inhibited significantly
inhibition of thromboxane formation, TNK versus t-PA ([6]; human, in vivo): significantly stronger
pattern of prostacyclin release, between the agents ([6]; human, in vivo): very similar
plasma concentrations of prostacyclin ([6]; human, in vivo): significant and early decrease
plasma concentrations of thromboxane ([6]; human, in vivo): significant and early decrease
prevention of platelet activation, TNK versus t-PA group ([6]; human, in vivo): stronger prevention of platelet activation
